Patent publication US7416847, “In vitro peptide or protein expression library” (Isogenica Limited)

T1: P2 A protein (replication initiation protein A), His6-tagged (Bacteriophage P2, UniProt Q06419 Q06419:1-761)
T1 sequence: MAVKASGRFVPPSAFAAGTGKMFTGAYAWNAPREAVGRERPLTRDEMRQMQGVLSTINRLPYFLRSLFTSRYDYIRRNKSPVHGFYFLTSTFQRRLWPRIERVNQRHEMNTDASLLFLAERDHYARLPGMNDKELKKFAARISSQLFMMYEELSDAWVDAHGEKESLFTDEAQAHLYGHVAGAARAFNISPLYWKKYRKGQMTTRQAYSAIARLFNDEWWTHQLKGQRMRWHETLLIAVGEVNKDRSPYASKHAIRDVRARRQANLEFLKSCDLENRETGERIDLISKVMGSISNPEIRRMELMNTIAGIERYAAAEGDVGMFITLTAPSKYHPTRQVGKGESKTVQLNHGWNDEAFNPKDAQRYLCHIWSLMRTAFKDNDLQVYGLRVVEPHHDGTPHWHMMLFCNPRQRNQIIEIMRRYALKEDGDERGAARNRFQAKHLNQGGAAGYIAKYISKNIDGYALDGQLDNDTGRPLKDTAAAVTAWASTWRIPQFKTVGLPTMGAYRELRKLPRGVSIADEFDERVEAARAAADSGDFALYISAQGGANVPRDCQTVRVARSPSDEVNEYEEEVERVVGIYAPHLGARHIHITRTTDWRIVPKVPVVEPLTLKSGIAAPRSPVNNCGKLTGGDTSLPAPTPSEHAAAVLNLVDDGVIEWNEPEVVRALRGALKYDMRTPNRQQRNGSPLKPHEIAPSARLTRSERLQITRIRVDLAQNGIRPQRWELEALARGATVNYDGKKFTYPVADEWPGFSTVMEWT


Columns and labels:
[1] = target: T1, P2 A protein (replication initiation …); test: pulldown; Ni-NTA selection of His::A plasmid over A plasmid pEE709; cis covalent binding; whole plasmid assayed, listed sequence is only the attachment region; 50 mM Na-phosphate pH 8.0, 300 mM NaCl, 20 mM imidazole; conditions: tags: N-terminal His6 (expressed from pEE711 or pEN24 in E. coli T7 S30 extract, Promega)
Experimental: One ug of DNA of the pEE709 and the pEE711 plasmids respectively was added to the coupled transcription/translation extract kit (20 ul S30 premix, 5 ul aminoacid mix and 15 ul *E. Coli* T7 S30 extract system for circular DNA, Promega, USA). The transcription/translation was allowed to proceed for 60 minutes at 37° C. The extract mixture was diluted 12-fold in washing buffer (Qiagen; […] Na-phosphate pH 8.0, 300 mM NaCl, 20 mM imidazole, 1 mM PMSF) and subjected to Ni selection by addition to a Ni-NTA spin column (Qiagen, Germany) equilibrated with Buffer 1 (50 mM Na-phosphate pH 8.0, 300 mM NaCl, 20 mM imidazole) under non-denaturing conditions. […] High efficiency competent cells JM109 (Promega, USA) were transformed with a portion of the eluant and scored for ampicillin resistant colonies. […]
To determine the distribution (ratio) of the plasmid types in the eluant, the presence of plasmids was measured by transformation of strain JM 109 (Promega) for amp-resistance. Colonies were picked and analysed for their plasmid type (differentiated by size) after plasmid extraction followed by agarose gel electrophoresis. The ratio of pEE711 (His::A) to pEE709 (A) in the absence of Ni-column selection was also determined.

[2] = target: T1, P2 A protein (replication initiation …); test: pulldown; Ni-NTA selection of His::A plasmid over A plasmid pEN21; no enrichment when S30 extract omitted; whole plasmid assayed, listed sequence is only the attachment region; 1 mM imidazole wash; conditions: tags: N-terminal His6 (expressed from pEE711 or pEN24 in E. coli T7 S30 extract, Promega)
Source text: In the second experiment two new plasmid constructs pEN21 (an A gene construct with an amp resistance gene, see FIG. 1) and pEN24 (a His::A gene construct with a tag of six histidine residues and a kanamycin resistance gene, see FIG. 1) were subjected to the same type of experiment as in experiment 1 above, with the modifications indicated in the materials and methods section below. By employing this differential antibiotic resistance it is possible to score for the individual plasmid types directly as bacterial colonies.
Materials and Methods pEN21 and 24 are derivatives of pET21a and pET24a (Novagen Inc. USA). The pET21a and pET24a vectors differ only by their selectable marker (ampicillin and kanamycin resistance respectively). The pEN21 and pEN24 were constructed by restriction cutting of pEE709 and pEE711 with XbaI and BlpI which cuts out the A gene and flanking regions. pET21a and pET24a were cut with the same restriction enzymes. The A-fragments and new vector fragments were isolated from an agarose gel after electrophoresis by Spin-Bind columns (FMC). […] The plasmids were incubated for 30 minutes in the S30 extracts and the plasmid types were scored by differential antibiotic resistance using ampicillin (pEN21) and kanamycin (pEN24) plates after transformation of E. coli strain BK 2118 by electroporation. […]

| Binder | binding signal [1] [fold enrichment] | binding signal [2] [fold enrichment] |
| --- | --- | --- |
| pEE711 plasmid encoding His::A (contains P2 A attachment site) (dsDNA) DNA 1: AGCGGCATCGCCGCGCCTCGGAGTCCTGTC DNA 2: GACAGGACTCCGAGGCGCGGCGATGCCGCT | 13.3 |  |
| pEN24 plasmid encoding His::A (contains P2 A attachment site) (dsDNA) DNA 1: AGCGGCATCGCCGCGCCTCGGAGTCCTGTC DNA 2: GACAGGACTCCGAGGCGCGGCGATGCCGCT |  | 6.8 |
